Results published in doi:10.1101/2020.09.29.317909.

Target: MtMce4A_(39-140) (Mycobacterium tuberculosis)
Experiment: SEC-MALS

## MtMce4A_(39-140) (domain or fragment)
  stoichiometry N: 2
